Experiment [1] has as its target T1, hFcgRIa (human, UniProt P12314 16-292).
T1 construct: extracellular domain; also called human FcγRIa; FcγRI
Description: SPR 25C.
Description: (§1) Biacore T200 (GE Healthcare) was used to evaluate the binding activity to the respective human Fcγ receptor (hereafter referred to as FcγR). Measurement was performed at 25° C. using 50 mM phosphate, 150 mM NaCl, 0.05 w/v %-P20, pH 7.4 as buffer. About 1000 RU of antibody was captured using a sensor chip immobilized with CaptureSelect™ Human Fab-lambda Kinetics Biotin Conjugate (Thermo Fisher Scientific) as a molecule for ligand capturing. Human FcγR was diluted to 8 nM for FcγRIa and 1000 nM for other FcγR in the measurement buffer, and it was interacted to the captured antibody. The binding activity of each antibody to FcγR was assessed by calculating the binding amount of FcγR (RU) per unit amount of antibody using Biacore T200 Evaluation Software 2.0.

In experiment [2] the target is T2, hFcgRIIaH (human, UniProt P12318 34-217).
T2 construct: extracellular domain; also called human FcγRIIa type H (H131)
T2 sequence (looked up): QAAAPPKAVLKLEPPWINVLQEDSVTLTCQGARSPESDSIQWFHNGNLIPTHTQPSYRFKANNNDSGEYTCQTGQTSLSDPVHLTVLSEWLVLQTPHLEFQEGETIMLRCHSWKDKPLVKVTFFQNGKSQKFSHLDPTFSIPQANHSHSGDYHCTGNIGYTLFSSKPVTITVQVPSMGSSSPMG
Description: SPR 25C.
Description: as §1

The target of experiment [3] is T3, hFcgRIIaR (human, UniProt P12318 34-217).
T3 construct: extracellular domain; also called human FcγRIIa type R (R131)
T3 sequence (looked up): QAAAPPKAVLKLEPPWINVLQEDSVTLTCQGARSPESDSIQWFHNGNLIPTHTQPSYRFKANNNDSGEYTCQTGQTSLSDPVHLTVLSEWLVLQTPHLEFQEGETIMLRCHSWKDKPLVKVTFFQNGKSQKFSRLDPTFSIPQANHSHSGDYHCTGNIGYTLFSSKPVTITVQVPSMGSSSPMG
Description: SPR 25C.
Description: as §1

Experiment [4] deals with T4, hFcgRIIb (human, UniProt P31994 43-217).
T4 construct: extracellular domain; also called human FcγRIIb
T4 sequence (looked up): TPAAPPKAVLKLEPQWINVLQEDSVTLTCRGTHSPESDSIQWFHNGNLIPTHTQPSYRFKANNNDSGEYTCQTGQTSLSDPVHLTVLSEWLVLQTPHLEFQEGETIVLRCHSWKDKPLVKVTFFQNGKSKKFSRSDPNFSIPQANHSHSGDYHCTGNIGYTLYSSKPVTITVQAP
Kind of experiment: SPR 25C.
Description: as §1

Experiment [5] concerns the target T5, hFcgRIIIaF (human, UniProt P08637 17-208).
T5 construct: extracellular domain; also called human FcγRIIIa allotype F158
Description: SPR 25C.
Description: as §1

Experiment [6] has as its target T6, hFcgRIIIaV (human, UniProt P08637 17-208).
T6 construct: extracellular domain; also called human FcγRIIIa allotype V158
Description: SPR 25C.
Description: as §1

Experiment [7] concerns the target human FcRn (human, UniProt P55899 24-290; P61769 21-119, limits assumed). Description: SPR 25C pH 6.0, steady state.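 Also: antibody captured on chip via anti-human Fab-lambda ligand, human FcRn injected as analyte in 50 mM phosphate buffer with 150 mM NaCl and P20.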
Description: Biacore T200 (GE Healthcare) was used to assess the binding activity to human FcRn. Measurement was performed at 25° C. using 50 mM phosphate, 150 mM NaCl, 0.05 w/v %-P20, pH 6.0 as buffer. […] About 400 RU of antibody was captured using a sensor chip immobilized with CaptureSelect™ Human Fab-lambda Kinetics Biotin Conjugate (Thermo Fisher Scientific) as a molecule for ligand capturing, followed by the binding of human FcRn diluted in measuring buffer. The activity of the respective antibodies to bind FcRn was assessed by calculating KD (mol/L) by the steady-state model using Biacore T200 Evaluation Software 2.0.
Experiment [8] concerns the target T1, hFcgRIa. Kind of experiment: SPR 25C; relative to A375-G1T3/B167-Lamlib.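 Also: SPR with antibody captured on an anti-human Fab-lambda chip, human FcγR analyte at 8 nM for FcγRIa or 1000 nM for the others, pH 7.4, FcγR RU per captured antibody unit.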
Experiment [9] addresses T2, hFcgRIIaH. Description: SPR 25C; relative to A375-G1T3/B167-Lamlib.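 Also: SPR with antibody captured on an anti-human Fab-lambda chip, human FcγR analyte at 8 nM for FcγRIa or 1000 nM for the others, pH 7.4, FcγR RU per captured antibody unit.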
For experiment [10], the target named is T3, hFcgRIIaR. Description: SPR 25C; relative to A375-G1T3/B167-Lamlib.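 Also: SPR with antibody captured on an anti-human Fab-lambda chip, human FcγR analyte at 8 nM for FcγRIa or 1000 nM for the others, pH 7.4, FcγR RU per captured antibody unit.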
Experiment [11] concerns the target T4, hFcgRIIb. Kind of experiment: SPR 25C; relative to A375-G1T3/B167-Lamlib.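 Also: SPR with antibody captured on an anti-human Fab-lambda chip, human FcγR analyte at 8 nM for FcγRIa or 1000 nM for the others, pH 7.4, FcγR RU per captured antibody unit.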
Experiment [12] concerns the target T5, hFcgRIIIaF. Description: SPR 25C; relative to A375-G1T3/B167-Lamlib.
The target of experiment [13] is T6, hFcgRIIIaV. Description: SPR 25C; relative to A375-G1T3/B167-Lamlib.

Here are results for four molecules from patent US20210324099A1 (Chugai, published 2021).

By Kd is commonly meant the constant that tells how readily two partners part at equilibrium.
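For binding per 1RU of antibody in this document: biacore SPR with antibody captured on an anti-human Fab lambda chip, human FcγR injected at 1000 nM (FcγRIa at 8 nM) in pH 7.4 phosphate buffer.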

T6 sequence (P08637 17-208 F176V): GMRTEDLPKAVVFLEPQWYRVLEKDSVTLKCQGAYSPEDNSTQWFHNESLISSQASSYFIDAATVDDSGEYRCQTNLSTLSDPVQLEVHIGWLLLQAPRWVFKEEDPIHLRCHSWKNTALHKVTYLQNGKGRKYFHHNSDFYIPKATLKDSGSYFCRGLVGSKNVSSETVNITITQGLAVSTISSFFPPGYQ
T5 sequence (P08637 17-208): as the sequence (P08637 17-208 F176V) above, with V160F counted along it
T1 sequence (P12314 16-292): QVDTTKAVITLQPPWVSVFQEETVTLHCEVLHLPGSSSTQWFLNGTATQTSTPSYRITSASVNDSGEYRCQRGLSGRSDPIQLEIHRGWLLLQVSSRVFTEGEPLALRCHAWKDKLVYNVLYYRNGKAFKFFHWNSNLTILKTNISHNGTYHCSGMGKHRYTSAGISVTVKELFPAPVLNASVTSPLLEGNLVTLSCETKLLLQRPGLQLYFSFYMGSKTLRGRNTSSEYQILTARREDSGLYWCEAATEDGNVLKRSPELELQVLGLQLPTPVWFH
human FcRn, sequence (P55899 24-290 limits assumed, chain 1 of 2): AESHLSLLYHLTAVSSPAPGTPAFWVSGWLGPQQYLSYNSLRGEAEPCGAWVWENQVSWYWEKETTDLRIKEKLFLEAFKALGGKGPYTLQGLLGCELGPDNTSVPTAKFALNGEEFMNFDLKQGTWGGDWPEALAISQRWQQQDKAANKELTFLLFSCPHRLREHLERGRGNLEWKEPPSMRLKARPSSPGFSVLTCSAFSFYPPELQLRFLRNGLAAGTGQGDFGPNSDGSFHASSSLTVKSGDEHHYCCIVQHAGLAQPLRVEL
human FcRn, sequence (P61769 21-119 limits assumed, chain 2 of 2): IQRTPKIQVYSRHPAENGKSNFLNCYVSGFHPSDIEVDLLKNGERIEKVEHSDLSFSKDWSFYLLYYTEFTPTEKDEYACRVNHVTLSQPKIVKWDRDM

B1: A375-SCF043a/B167-Lamlib (antibody, human IgG1, lambda)
heavy: EVQLVESGGGLVKPGGSLRLSCAASGFTFSTFTMNWVRQAPGKGLEWVSSISSKSTYIEYADSFKVRFTISRDNAKNSLYLQMNSLRAEDTAVYYCARYGAKNFLNWVFDYWGQGTLVTVSSASTKGPSVFPLAPSSKSTSGGTAALGCLVKDYFPEPVTVSWNSGALTSGVHTFPAVLQSSGLYSLSSVVTVPSSSLGTQTYICNVNHKPSNTKVDKRVEPKSCDKTHTCPPCPAPELLNGPSVFLFPPKPKDTLMISRTPEVTCVVVDVSDEDPEVKFNWYVDGVEVHNAKTKPREEQYNSTYRVVSVLTVLHQDWLNGKEYKCKVSNKALPKPIEKTISKAKGQRREPQVYTLPPSREEMTKNQVSLTCLVKGFYPSDIAVEWESNGQPENNYKTTPPVLDSDGSFFLYSKLTVKKSRWQQGNVFSCSVMHEALHNHYTQKSLSLSP
light: QSALTQPPSASGSPGQTVTISCTGTRYDVGYYEYVSWYQQHPGKAPKLMIYETSKRLSGVPDRFSGSKSGNTASLTVSGLQAEDEADYYCSSYRYEHQVSFGGGTKLTVLGQPKAAPSVTLFPPSSEELQANKATLVCLISDFYPGAVTVAWKADSSPVKAGVETTTPSKQSNNKYAASSYLSLTPEQWKSHRSYSCQVTHEGSTVEKTVAPTECS
Take B1: the “binding per 1RU of antibody” value in experiment [1] came to 0.0429 RU; in experiment [2], 0.0552 RU; in experiment [3] it was 0.0361 RU; in experiment [4], 0.0419 RU; in [5] it was 0.0011 RU; in experiment [6], 0.0025 RU. Further, binding in experiment [7] was characterised by a dissociation constant (Kd) of 1180 nM. In addition, the relative binding amount was 0.53 in experiment [8]; 0.97 in [9]; 0.78 in experiment [10]; 3.82 in experiment [11]; 0.05 in experiment [12]; 0.04 in [13].

B2: A375-SCF056aPh/B167-Lamlib (antibody, human IgG1, lambda)
heavy: EVQLVESGGGLVKPGGSLRLSCAASGFTFSTFTMNWVRQAPGKGLEWVSSISSKSTYIEYADSFKVRFTISRDNAKNSLYLQMNSLRAEDTAVYYCARYGAKNFLNWVFDYWGQGTLVTVSSASTKGPSVFPLAPSSKSTSGGTAALGCLVKDYFPEPVTVSWNSGALTSGVHTFPAVLQSSGLYSLSSVVTVPSSSLGTQTYICNVNHKPSNTKVDKRVEPKSCDKTHTCPPCPAPELWNGPSVFLFPPKPKDTLMISRTPEVTCVVVDVSDEDPEVKFNWYVDGVEVHNAKTKPREEQYNSTYRVVSVLTVLHRDWLNGKEYKCKVSNKALPKPIEKTISKAKGQPREPQVYTLPPSREEMTKNQVSLTCLVKGFYPSDIAVEWESNGQPENNYKTTPPVLDSDGSFFLYSKLTVDKSRWQQGNVFSCSVMHEALHNHYTQKSLSLSP
light: QSALTQPPSASGSPGQTVTISCTGTRYDVGYYEYVSWYQQHPGKAPKLMIYETSKRLSGVPDRFSGSKSGNTASLTVSGLQAEDEADYYCSSYRYEHQVSFGGGTKLTVLGQPKAAPSVTLFPPSSEELQANKATLVCLISDFYPGAVTVAWKADSSPVKAGVETTTPSKQSNNKYAASSYLSLTPEQWKSHRSYSCQVTHEGSTVEKTVAPTECS
notes: copies: 2 + 2
Consider B2, for which the “binding per 1RU of antibody” value in experiment [1] came to 0.0019 RU; in [2] it was 0.0314 RU; in experiment [3], 0.0299 RU; in experiment [4], 0.0292 RU; in [5], 0.001 RU; in experiment [6], 0.001 RU. The molecule further came in with a Kd in [7] of 1000 nM. For the same molecule, the relative binding amount in experiment [8] is 0.02; in [9], 0.55; in experiment [10] it was 0.64; in [11], 2.67; in [12], 0.05; in [13], 0.01.

B3: A375-SCF056a/B167-Lamlib (antibody, human IgG1, lambda)
heavy: EVQLVESGGGLVKPGGSLRLSCAASGFTFSTFTMNWVRQAPGKGLEWVSSISSKSTYIEYADSFKVRFTISRDNAKNSLYLQMNSLRAEDTAVYYCARYGAKNFLNWVFDYWGQGTLVTVSSASTKGPSVFPLAPSSKSTSGGTAALGCLVKDYFPEPVTVSWNSGALTSGVHTFPAVLQSSGLYSLSSVVTVPSSSLGTQTYICNVNHKPSNTKVDKRVEPKSCDKTHTCPPCPAPELLNGPSVFLFPPKPKDTLMISRTPEVTCVVVDVSDEDPEVKFNWYVDGVEVHNAKTKPREEQYNSTYRVVSVLTVLHRDWLNGKEYKCKVSNKALPKPIEKTISKAKGQPREPQVYTLPPSREEMTKNQVSLTCLVKGFYPSDIAVEWESNGQPENNYKTTPPVLDSDGSFFLYSKLTVDKSRWQQGNVFSCSVMHEALHNHYTQKSLSLSP
light: QSALTQPPSASGSPGQTVTISCTGTRYDVGYYEYVSWYQQHPGKAPKLMIYETSKRLSGVPDRFSGSKSGNTASLTVSGLQAEDEADYYCSSYRYEHQVSFGGGTKLTVLGQPKAAPSVTLFPPSSEELQANKATLVCLISDFYPGAVTVAWKADSSPVKAGVETTTPSKQSNNKYAASSYLSLTPEQWKSHRSYSCQVTHEGSTVEKTVAPTECS
notes: copies: 2 + 2
As to B3, the “binding per 1RU of antibody” value in [1] worked out at 0.0395 RU; in experiment [2], 0.0529 RU; in experiment [3] it was 0.0331 RU; in experiment [4], 0.0399 RU; in experiment [5], 0.0011 RU; in [6] it was 0.0023 RU. In [7], this molecule registered a Kd of 956 nM. Besides, the relative binding amount in [8] came to 0.49; in experiment [9] it was 0.93; in [10], 0.71; in experiment [11] it was 3.64; in experiment [12], 0.05; in [13], 0.03.

B4: A375-SCF043aPh/B167-Lamlib (antibody, human IgG1, lambda)
heavy: EVQLVESGGGLVKPGGSLRLSCAASGFTFSTFTMNWVRQAPGKGLEWVSSISSKSTYIEYADSFKVRFTISRDNAKNSLYLQMNSLRAEDTAVYYCARYGAKNFLNWVFDYWGQGTLVTVSSASTKGPSVFPLAPSSKSTSGGTAALGCLVKDYFPEPVTVSWNSGALTSGVHTFPAVLQSSGLYSLSSVVTVPSSSLGTQTYICNVNHKPSNTKVDKRVEPKSCDKTHTCPPCPAPELWNGPSVFLFPPKPKDTLMISRTPEVTCVVVDVSDEDPEVKFNWYVDGVEVHNAKTKPREEQYNSTYRVVSVLTVLHQDWLNGKEYKCKVSNKALPKPIEKTISKAKGQRREPQVYTLPPSREEMTKNQVSLTCLVKGFYPSDIAVEWESNGQPENNYKTTPPVLDSDGSFFLYSKLTVKKSRWQQGNVFSCSVMHEALHNHYTQKSLSLSP
light: QSALTQPPSASGSPGQTVTISCTGTRYDVGYYEYVSWYQQHPGKAPKLMIYETSKRLSGVPDRFSGSKSGNTASLTVSGLQAEDEADYYCSSYRYEHQVSFGGGTKLTVLGQPKAAPSVTLFPPSSEELQANKATLVCLISDFYPGAVTVAWKADSSPVKAGVETTTPSKQSNNKYAASSYLSLTPEQWKSHRSYSCQVTHEGSTVEKTVAPTECS
As for B4, the “binding per 1RU of antibody” value in experiment [1] amounted to 0.0011 RU; in experiment [2], 0.0349 RU; in experiment [3] it was 0.0349 RU; in [4] it was 0.0339 RU; in [5], 0.0001 RU; in experiment [6] it was 0.0001 RU. In addition, binding in [7] was put at a Kd of 1210 nM. In addition, the relative binding amount in experiment [8] amounted to 0.01; in [9], 0.62; in experiment [10], 0.75; in experiment [11], 3.1; in experiment [12], 0; in [13], 0.
